Source: patent US20230287598A1 (TAURUS BIOSCIENCES, published 2023)
Like-named read-outs stand apart in the source and are kept apart here.

T1: CXCR1 (UniProt P25024 1-350, limits assumed)
T1 construct: whole, on cells; DiscoveRx PathHunter cell line; any reporter tag on the receptor is not described; also called CXCR1 receptor; CXCR1-U2OS
T1 sequence (looked up): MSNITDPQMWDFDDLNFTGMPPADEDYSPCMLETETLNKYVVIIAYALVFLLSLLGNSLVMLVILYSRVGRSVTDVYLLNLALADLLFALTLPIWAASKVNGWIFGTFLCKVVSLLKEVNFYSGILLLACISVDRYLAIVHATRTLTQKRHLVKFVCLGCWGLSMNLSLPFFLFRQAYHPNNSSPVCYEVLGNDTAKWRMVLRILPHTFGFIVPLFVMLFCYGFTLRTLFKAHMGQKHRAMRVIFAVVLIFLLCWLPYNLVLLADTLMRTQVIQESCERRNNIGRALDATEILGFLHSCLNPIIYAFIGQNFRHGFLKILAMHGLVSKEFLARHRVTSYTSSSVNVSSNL


Legend:
CXCR1 [1] = biological target: T1, CXCR1; assay: flow cytometry, supernatant at 5 nM IgG
CXCR1 [2] = biological target: T1, CXCR1; assay: flow cytometry, supernatant at 5 nM IgG; remark: listed apart in the source

| Binder | Specific Binding (CXCR1-Cell median AFU / Parental Cell median AFU) (CXCR1 [1]) | Specific Binding (CXCR1-Cell median AFU / Parental Cell median AFU) (CXCR1 [2]) |
| --- | --- | --- |
| VH4-34+CDR3-IL8_CDR1 Cow_CDR2 E50S / VL1-51 S2A, T5N, P8S, A12G, A13S, P14L, D51G, N52D, N53T IgG (antibody) VH: QVQLQQWGAGLLKPSETLSLTCTASGFSLSDKAVGWIRQPPGKGLEWIGSINHSGSTNYNPSLKSRVTISVDTSKNQFSLKLSSVTAADTAVYYCTSVHQETKKYQSPRSAKELRCQCIKTYSKPFHPKFIKELRVIESGPHCANTEIIVKLSDGRELCLDPKENWVQRVVEKFLKRAENSGSGSYTYNYEWHVDVWGQGLLVTVSSAS light: QAVLNQPSSVSGSLGQKVTISCSGSSSNIGNNYVSWYQQLPGTAPKLLIYGDTKRPSGIPDRFSGSKSGTSATLGITGLQTGDEADYYCASAEDSSSNAVFGSGTTLTVLGQPKAAPSVTLFPPSSEELQANKATLVCLISDFYPGAVTVAWKADSSPVKAGVETTTPSKQSNNKYAASSYLSLTPEQWKSHRSYSCQVTHEGSTVEKTVAPTECS | 6 |  |
| VH4-34+CDR3-IL8_CDR2-Cow_Q5RQ6E / VL1-51 S2A, T5N, P8S, A12G, A13S, P14L, K46R, L47T, D51G, N52D, N53T, K54S, P56A IgG (antibody) VH: QVQLREWGAGLLKPSETLSLTCAVYGGSFSGYYWSWIRQPPGKGLEWLGSIDTGGNTGYNPSLKSRVTISVDTSKNQFSLKLSSVTAADTAVYYCTSVHQETKKYQSPRSAKELRCQCIKTYSKPFHPKFIKELRVIESGPHCANTEIIVKLSDGRELCLDPKENWVQRVVEKFLKRAENSGSGSYTYNYEWHVDVWGQGLLVTVSS light: QAVLNQPSSVSGSLGQKVTISCSGSSSNIGNNYVSWYQQLPGTAPRTLIYGDTSRASGIPDRFSGSKSGTSATLGITGLQTGDEADYYCASAEDSSSNAVFGSGTTLTVLGQPKAAPSVTLFPPSSEELQANKATLVCLISDFYPGAVTVAWKADSSPVKAGVETTTPSKQSNNKYAASSYLSLTPEQWKSHRSYSCQVTHEGSTVEKTVAPTECS |  | 1 |
| VH4-34+CDR3-IL8_CDR1-Cow_CDR2-Cow_Q5RQ6E / VL1-51 I29V, N32G, K46R, L47T, D51G, N52D, N53T IgG (antibody) VH: QVQLREWGAGLLKPSETLSLTCTASGFSLSDKAVGWIRQPPGKGLEWLGSIDTGGNTGYNPSLKSRVTISVDTSKNQFSLKLSSVTAADTAVYYCTSVHQETKKYQSPRSAKELRCQCIKTYSKPFHPKFIKELRVIESGPHCANTEIIVKLSDGRELCLDPKENWVQRVVEKFLKRAENSGSGSYTYNYEWHVDVWGQGLLVTVSS light: QSVLTQPPSVSAAPGQKVTISCSGSSSNVGNGYVSWYQQLPGTAPRTLIYGDTKRPSGIPDRFSGSKSGTSATLGITGLQTGDEADYYCASAEDSSSNAVFGSGTTLTVLGQPKAAPSVTLFPPSSEELQANKATLVCLISDFYPGAVTVAWKADSSPVKAGVETTTPSKQSNNKYAASSYLSLTPEQWKSHRSYSCQVTHEGSTVEKTVAPTECS |  | 1 |
| VH4-34+CDR3-IL8_CDR1-G31DY32K_CDR2-E50S_Q5RQ6E / VL1-51 I29V, N32G, K46R, L47T, D51G, N52D, N53T IgG (antibody) VH: QVQLREWGAGLLKPSETLSLTCAVYGGSFSDKYWSWIRQPPGKGLEWIGSINHSGSTNYNPSLKSRVTISVDTSKNQFSLKLSSVTAADTAVYYCTSVHQETKKYQSPRSAKELRCQCIKTYSKPFHPKFIKELRVIESGPHCANTEIIVKLSDGRELCLDPKENWVQRVVEKFLKRAENSGSGSYTYNYEWHVDVWGQGLLVTVSS light: QSVLTQPPSVSAAPGQKVTISCSGSSSNVGNGYVSWYQQLPGTAPRTLIYGDTKRPSGIPDRFSGSKSGTSATLGITGLQTGDEADYYCASAEDSSSNAVFGSGTTLTVLGQPKAAPSVTLFPPSSEELQANKATLVCLISDFYPGAVTVAWKADSSPVKAGVETTTPSKQSNNKYAASSYLSLTPEQWKSHRSYSCQVTHEGSTVEKTVAPTECS |  | 1 |
| VH4-34+CDR3-IL8_Q5RQ6E / VL1-51 S2A, T5N, P8S, A12G, A13S, P14L, K46R, L47T, D51G, N52D, N53T IgG (antibody, nt HC 490, LC 486) VH: QVQLREWGAGLLKPSETLSLTCAVYGGSFSGYYWSWIRQPPGKGLEWIGEINHSGSTNYNPSLKSRVTISVDTSKNQFSLKLSSVTAADTAVYYCTSVHQETKKYQSPRSAKELRCQCIKTYSKPFHPKFIKELRVIESGPHCANTEIIVKLSDGRELCLDPKENWVQRVVEKFLKRAENSGSGSYTYNYEWHVDVWGQGLLVTVSS light: QAVLNQPSSVSGSLGQKVTISCSGSSSNIGNNYVSWYQQLPGTAPRTLIYGDTKRPSGIPDRFSGSKSGTSATLGITGLQTGDEADYYCASAEDSSSNAVFGSGTTLTVLGQPKAAPSVTLFPPSSEELQANKATLVCLISDFYPGAVTVAWKADSSPVKAGVETTTPSKQSNNKYAASSYLSLTPEQWKSHRSYSCQVTHEGSTVEKTVAPTECS |  | 10 |
| VH4-34+CDR3-IL8_CDR1-G31DY32K_Q5RQ6E / VL1-51 S2A, T5N, P8S, A12G, A13S, P14L, D51G, N52D, N53T IgG (antibody) VH: QVQLREWGAGLLKPSETLSLTCAVYGGSFSDKYWSWIRQPPGKGLEWIGEINHSGSTNYNPSLKSRVTISVDTSKNQFSLKLSSVTAADTAVYYCTSVHQETKKYQSPRSAKELRCQCIKTYSKPFHPKFIKELRVIESGPHCANTEIIVKLSDGRELCLDPKENWVQRVVEKFLKRAENSGSGSYTYNYEWHVDVWGQGLLVTVSS light: QAVLNQPSSVSGSLGQKVTISCSGSSSNIGNNYVSWYQQLPGTAPKLLIYGDTKRPSGIPDRFSGSKSGTSATLGITGLQTGDEADYYCASAEDSSSNAVFGSGTTLTVLGQPKAAPSVTLFPPSSEELQANKATLVCLISDFYPGAVTVAWKADSSPVKAGVETTTPSKQSNNKYAASSYLSLTPEQWKSHRSYSCQVTHEGSTVEKTVAPTECS |  | 2 |
| VH4-34+CDR3-IL8 / VL1-51 S2A, T5N, P8S, A12G, A13S, P14L, D51G, N52D, N53T IgG (antibody, nt HC 430, LC 444) VH: QVQLQQWGAGLLKPSETLSLTCAVYGGSFSGYYWSWIRQPPGKGLEWIGEINHSGSTNYNPSLKSRVTISVDTSKNQFSLKLSSVTAADTAVYYCTSVHQETKKYQSPRSAKELRCQCIKTYSKPFHPKFIKELRVIESGPHCANTEIIVKLSDGRELCLDPKENWVQRVVEKFLKRAENSGSGSYTYNYEWHVDVWGQGLLVTVSSAS light: QAVLNQPSSVSGSLGQKVTISCSGSSSNIGNNYVSWYQQLPGTAPKLLIYGDTKRPSGIPDRFSGSKSGTSATLGITGLQTGDEADYYCASAEDSSSNAVFGSGTTLTVLGQPKAAPSVTLFPPSSEELQANKATLVCLISDFYPGAVTVAWKADSSPVKAGVETTTPSKQSNNKYAASSYLSLTPEQWKSHRSYSCQVTHEGSTVEKTVAPTECS | 3 |  |
| VH4-34+CDR3-IL8_Q5RQ6E / VL1-51 S2A, T5N, P8S, A12G, A13S, P14L, K46R, L47T, D51G, N52D, N53T, K54S, P56A IgG (antibody) VH: QVQLREWGAGLLKPSETLSLTCAVYGGSFSGYYWSWIRQPPGKGLEWIGEINHSGSTNYNPSLKSRVTISVDTSKNQFSLKLSSVTAADTAVYYCTSVHQETKKYQSPRSAKELRCQCIKTYSKPFHPKFIKELRVIESGPHCANTEIIVKLSDGRELCLDPKENWVQRVVEKFLKRAENSGSGSYTYNYEWHVDVWGQGLLVTVSS light: QAVLNQPSSVSGSLGQKVTISCSGSSSNIGNNYVSWYQQLPGTAPRTLIYGDTSRASGIPDRFSGSKSGTSATLGITGLQTGDEADYYCASAEDSSSNAVFGSGTTLTVLGQPKAAPSVTLFPPSSEELQANKATLVCLISDFYPGAVTVAWKADSSPVKAGVETTTPSKQSNNKYAASSYLSLTPEQWKSHRSYSCQVTHEGSTVEKTVAPTECS |  | 3 |
| VH4-34+CDR3-IL8_CDR1 Cow / VL1-51 S2A, T5N, P8S, A12G, A13S, P14L, D51G, N52D, N53T IgG (antibody) VH: QVQLQQWGAGLLKPSETLSLTCTASGFSLSDKAVGWIRQPPGKGLEWIGEINHSGSTNYNPSLKSRVTISVDTSKNQFSLKLSSVTAADTAVYYCTSVHQETKKYQSPRSAKELRCQCIKTYSKPFHPKFIKELRVIESGPHCANTEIIVKLSDGRELCLDPKENWVQRVVEKFLKRAENSGSGSYTYNYEWHVDVWGQGLLVTVSSAS light: QAVLNQPSSVSGSLGQKVTISCSGSSSNIGNNYVSWYQQLPGTAPKLLIYGDTKRPSGIPDRFSGSKSGTSATLGITGLQTGDEADYYCASAEDSSSNAVFGSGTTLTVLGQPKAAPSVTLFPPSSEELQANKATLVCLISDFYPGAVTVAWKADSSPVKAGVETTTPSKQSNNKYAASSYLSLTPEQWKSHRSYSCQVTHEGSTVEKTVAPTECS | 4 |  |
